# Measured values reported in US9994644B2, “mAB 2 anti-Met antibody” (Agency for Science, Technology and Research, priority 2013, dated 2018).
# “Also recorded” adds a separate entry of the source.
# Key:
# SNU-5 cells = assay: Cell proliferation by CellTracker Green BODIPY dye retention; format: cell-based, human; details: SNU-5, 10 μg/mL mAb, 6 days
# Protocol: CellTracker BODIPY dye is a membrane permeable dye that enters cells freely. Once in the cell, the dye is converted to a membrane impermeable product which labels the cell green. The dye is passed on to dividing daughter cells but is not transferable to neighbouring cells. Dividing cells would fail to retain the green dye as it is being diluted to progeny cells. Cells were treated with 10 μg/mL of monoclonal antibodies for 6 days and dye retention in cells was analysed by flow cytometry.
# SNU-5 cells were stained with 5 μM of CellTracker BODIPY dye for 30 mins. Stained cells were seeded and treated with anti-α-chain c-Met monoclonal antibodies for 6 days. Cells were harvested and dye retention in live cells were analysed by flow cytometry.
# [1] = target: T1, native c-Met on live SNU-5 cells (Homo sapiens, UniProt P08581); assay: Temperature sensitivity of antibody binding by flow cytometry; details: live SNU-5, 10 μg/mL mAb, 1 hr
# T1 construct: native c-Met expressed on the cell surface of SNU-5 cells; host or cells: SNU-5
# Protocol: To determine if temperature affects the binding affinity of anti-α-chain monoclonal antibody to native c-Met, mAb 2, 13, 11 and 18 were incubated with live SNU-5 cells at 4° C. or 37° C. Binding of monoclonal antibody to native c-Met expressed on the cell surface of live SNU-5 cells was detected using anti-mouse secondary antibody conjugated with Alexa Fluor®488 dye and analysed by flow cytometry. Antibody binding, which correlates with fluorescence intensity, was compared at the different temperatures. […] It is plausible that the reduction of antibody binding is due to the unavailability of antibody's epitope on native c-Met expressed on live SNU-5 cells. c-Met is a dynamic protein at normal physiological temperature and becomes rigid at low temperature, causing certain epitopes to be obscured.
# 10 μg/mL of anti-α-chain monoclonal antibody were incubated with live SNU-5 cells for 1 hr at 4° C. or 37° C. Cells were harvested and washed once in cold PBS. Antibody binding to live cells was determined by Alexa Fluor®488-conjugated anti-mouse secondary antibodies (Invitrogen #A11029). Cells were resuspended in 1% BSA/PBS and analysed by flow cytometry.
# T1 sequence (P08581 25-1390): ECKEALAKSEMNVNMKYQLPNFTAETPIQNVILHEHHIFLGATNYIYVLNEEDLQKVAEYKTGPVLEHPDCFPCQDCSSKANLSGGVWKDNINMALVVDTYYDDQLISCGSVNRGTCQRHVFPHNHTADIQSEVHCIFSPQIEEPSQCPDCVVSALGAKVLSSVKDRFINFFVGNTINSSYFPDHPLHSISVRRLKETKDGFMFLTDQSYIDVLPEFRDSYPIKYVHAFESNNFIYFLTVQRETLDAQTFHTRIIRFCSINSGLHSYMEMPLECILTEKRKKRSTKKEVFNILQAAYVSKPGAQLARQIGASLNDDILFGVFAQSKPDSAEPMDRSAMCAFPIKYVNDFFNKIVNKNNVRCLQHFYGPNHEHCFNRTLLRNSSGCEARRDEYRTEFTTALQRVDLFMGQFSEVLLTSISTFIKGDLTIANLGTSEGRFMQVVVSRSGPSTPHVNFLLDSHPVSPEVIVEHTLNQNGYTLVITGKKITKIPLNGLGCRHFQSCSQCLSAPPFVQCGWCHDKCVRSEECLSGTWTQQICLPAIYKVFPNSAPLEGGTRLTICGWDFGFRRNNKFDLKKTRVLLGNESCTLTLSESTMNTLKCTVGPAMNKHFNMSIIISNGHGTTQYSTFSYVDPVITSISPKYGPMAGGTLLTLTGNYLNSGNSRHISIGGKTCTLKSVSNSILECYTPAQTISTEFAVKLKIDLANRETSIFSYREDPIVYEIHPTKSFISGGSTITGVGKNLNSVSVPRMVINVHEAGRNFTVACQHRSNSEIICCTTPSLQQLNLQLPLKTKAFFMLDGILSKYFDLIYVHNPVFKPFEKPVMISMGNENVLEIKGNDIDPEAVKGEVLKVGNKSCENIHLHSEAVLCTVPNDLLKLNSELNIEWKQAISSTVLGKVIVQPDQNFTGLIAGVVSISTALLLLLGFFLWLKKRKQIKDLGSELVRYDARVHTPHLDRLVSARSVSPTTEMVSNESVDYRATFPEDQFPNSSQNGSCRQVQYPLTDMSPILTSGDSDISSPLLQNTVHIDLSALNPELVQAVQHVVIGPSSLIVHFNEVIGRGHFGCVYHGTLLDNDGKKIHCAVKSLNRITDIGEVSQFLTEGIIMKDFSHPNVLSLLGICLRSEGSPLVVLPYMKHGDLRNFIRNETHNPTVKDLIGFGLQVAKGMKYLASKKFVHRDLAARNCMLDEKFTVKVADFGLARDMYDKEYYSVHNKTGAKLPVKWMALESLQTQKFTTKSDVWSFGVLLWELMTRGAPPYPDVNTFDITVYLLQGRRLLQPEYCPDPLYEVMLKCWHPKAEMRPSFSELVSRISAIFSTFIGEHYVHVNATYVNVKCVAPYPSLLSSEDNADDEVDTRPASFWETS
molecule,measurement,setting,value
"mAb 2: murine bivalent anti-α-chain c-Met monoclonal antibody, IgG1, kappa; CDRs SEQ ID NO: 2-7; epitope IEE and CPDC (antibody, listed as Homo sapiens) heavy: QVQLKESGGGLVQPGGSLTLSCATSGFTFTDHYMSWVRQPPGKALEWLAFIRNKAKGYTTEYNASVRGRFTISRDNSQNIVYLQMNTLRTEDSATYYCARDGVGIAYWGQTLVTVSAAKTTPPSVYPLAP light: SIVMTQSPLSLPVSLGDQASISCRSSQSLENINGNTYKNWYFQKPGQSPQLLIYRVSNRVSGVLDRFSGSGSGTDFTLKITRVEAEDLGVYFCLQVTHVPWTFGGGTKLEIKRADAAPTKSIS",CellTracker Green BODIPY fluorescence retention,SNU-5 cells,retained significant levels of green fluorescence
same,change of antibody binding between 4° C. and 37° C.,[1],most drastic peak shift; also recorded: temperature sensitive
